Stoichiometry N data for one substance are collected here from article PMC3200314.

This experiment addresses recombinant neuraminidase ectodomain of A/California/04/2009 (pH1N1) (influenza A virus A/California/04/2009 (H1N1)). The experiment in a line: SEC. For orientation: In gel filtration, larger molecules generally elute earlier.

As usually defined, the stoichiometry N is the number of molecules, sites or subunits per partner or assembly.

Turning to “recombinant neuraminidase ectodomain of A/California/04/2009 (pH1N1) (domain or fragment)”, the stoichiometry N worked out at 4.
